PMC11322666, “UPF3B modulates endoplasmic reticulum stress through interaction with inositol-requiring enzyme-1α” (Cell Death & Disease, 2024)

Experiments:
[1] = molecular target: T1, inositol-requiring enzyme-1α (IRE1α), endogenous (human (endogenous in HEK293T and U2OS), UniProt O75460 19-977); assay: co-IP; endogenous proteins, lysates of HEK293T and U2OS cells, IP with the indicated antibodies (anti-IRE1α), IgG as negative control; also with RNase A pre-treatment of lysates, in shUPF1 and shUPF2 cells, after STF-083010 or Kira6 (10 or 50 μM, 6 h), BiP overexpression, siBiP, UPF3B overexpression; settings: partners not purified
T1 construct: inositol-requiring enzyme-1α (IRE1α), endogenous in HEK293T and U2OS cells; source: endogenous, HEK293T and U2OS lysates

IRE1α^S724A = molecular target: T2, IRE1α^S724A (human, UniProt O75460 19-977, S724A); assay: co-IP; lysates of transfected HEK293T or U2OS cells (24 h) in NETN buffer (20 mM Tris-HCl pH 8.0, 100 mM NaCl, 1 mM EDTA, 0.5% NP-40), IP with anti-Flag (M2) magnetic beads or the indicated antibodies, western blot; Fig. 3G two-way; settings: partners not purified
T2 construct: IRE1α, human, point mutant; source: HEK293T and U2OS, transfected, in lysate
T2 sequence (O75460 19-977 S724A): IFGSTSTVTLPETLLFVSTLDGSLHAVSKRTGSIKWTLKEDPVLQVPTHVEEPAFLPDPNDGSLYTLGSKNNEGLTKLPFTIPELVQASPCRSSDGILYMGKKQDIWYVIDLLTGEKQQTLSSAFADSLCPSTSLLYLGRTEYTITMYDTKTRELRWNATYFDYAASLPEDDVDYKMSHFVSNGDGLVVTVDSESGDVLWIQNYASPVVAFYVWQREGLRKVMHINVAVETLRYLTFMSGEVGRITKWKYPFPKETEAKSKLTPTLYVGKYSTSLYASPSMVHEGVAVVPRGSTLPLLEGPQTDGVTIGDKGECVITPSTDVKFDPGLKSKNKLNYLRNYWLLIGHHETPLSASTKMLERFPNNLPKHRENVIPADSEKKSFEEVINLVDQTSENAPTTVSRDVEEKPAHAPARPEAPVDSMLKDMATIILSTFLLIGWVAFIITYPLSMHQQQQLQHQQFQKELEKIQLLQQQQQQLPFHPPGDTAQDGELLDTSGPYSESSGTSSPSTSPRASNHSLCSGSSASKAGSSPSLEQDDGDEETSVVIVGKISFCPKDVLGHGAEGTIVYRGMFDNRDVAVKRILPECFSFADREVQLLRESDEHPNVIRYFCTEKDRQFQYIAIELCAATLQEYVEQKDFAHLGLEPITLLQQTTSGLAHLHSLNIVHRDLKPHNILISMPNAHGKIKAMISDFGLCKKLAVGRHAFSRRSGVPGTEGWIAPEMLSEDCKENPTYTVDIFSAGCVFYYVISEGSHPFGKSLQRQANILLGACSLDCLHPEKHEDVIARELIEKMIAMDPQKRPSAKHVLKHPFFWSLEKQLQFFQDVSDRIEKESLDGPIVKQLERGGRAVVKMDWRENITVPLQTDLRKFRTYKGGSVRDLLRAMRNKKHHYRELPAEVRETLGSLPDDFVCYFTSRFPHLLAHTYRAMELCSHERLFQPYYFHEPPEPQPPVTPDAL

T1 sequence (O75460 19-977): as the sequence (O75460 19-977 S724A) above, with A706S counted along it

fold change of the co-precipitate in Kira6-treated against control cells [1]: 3.9 fold
fold change of the co-precipitate against IRE1α^WT (IRE1α^S724A): 3.2 fold
B1: UPF3B, endogenous (natural protein, human (endogenous in HEK293T and U2OS), UniProt Q9BZI7 1-483, looked up)
chain: MKEEKEHRPKEKRVTLLTPAGATGSGGGTSGDSSKGEDKQDRNKEKKEALSKVVIRRLPPTLTKEQLQEHLQPMPEHDYFEFFSNDTSLYPHMYARAYINFKNQEDIILFRDRFDGYVFLDNKGQEYPAIVEFAPFQKAAKKKTKKRDTKVGTIDDDPEYRKFLESYATDNEKMTSTPETLLEEIEAKNRELIAKKTTPLLSFLKNKQRMREEKREERRRREIERKRQREEERRKWKEEEKRKRKDIEKLKKIDRIPERDKLKDEPKIKVHRFLLQAVNQKNLLKKPEKGDEKELDKREKAKKLDKENLSDERASGQSCTLPKRSDSELKDEKPKRPEDESGRDYREREREYERDQERILRERERLKRQEEERRRQKERYEKEKTFKRKEEEMKKEKDTLRDKGKKAESTESIGSSEKTEKKEEVVKRDRIRNKDRPAMQLYQPGARSRNRLCPPDDSTKSGDSAAERKQESGISHRKEGGEE
notes: UPF3B, endogenous in HEK293T and U2OS cells; also called up-frameshift 3B; source: endogenous, HEK293T and U2OS lysates
